Measurements published in patent publication US20210261668A1 (DRAGONFLY THERAPEUTICS, published 2021).
Numbering of substitutions follows the chain as printed.

How the values were obtained:
Test in all cases: ELISA on coated NKG2D-Fc
[1] = biological target: T1, human NKG2D-Fc fusion protein (human, UniProt P26718 73-216)
T1 construct: extracellular domain; also called recombinant human NKG2D-Fc; human recombinant NKG2D; not shown: human IgG1 Fc domain
T1 sequence (looked up): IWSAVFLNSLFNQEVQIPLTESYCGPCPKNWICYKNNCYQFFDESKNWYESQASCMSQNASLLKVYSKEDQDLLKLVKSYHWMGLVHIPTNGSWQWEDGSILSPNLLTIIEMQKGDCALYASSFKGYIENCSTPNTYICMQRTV

[2] = biological target: T2, mouse NKG2D-Fc fusion protein (mouse; human, UniProt O54709 90-232)
T2 construct: extracellular domain; also called mouse recombinant NKG2D-Fc; recombinant mouse NKG2D-Fc; not shown: human IgG1 Fc domain
T2 sequence (looked up): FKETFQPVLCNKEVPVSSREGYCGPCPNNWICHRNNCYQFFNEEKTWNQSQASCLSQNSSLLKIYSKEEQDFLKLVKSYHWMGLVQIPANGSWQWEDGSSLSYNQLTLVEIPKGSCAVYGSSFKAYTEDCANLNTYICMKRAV

[3] = biological target: T3, cynomolgus NKG2D-Fc fusion protein (cynomolgus; human, UniProt P61252 73-216)
T3 construct: extracellular domain; also called cynomolgus recombinant NKG2D-Fc; cynomolgus recombinant NKG2D; not shown: human IgG1 Fc domain
T3 sequence (looked up): T1 sequence (looked up) with D43N, T133I

Measured: binding result

B1: ADI-29379 (antibody, V domains shown)
VH: QVQLVQSGAEVKKPGASVKVSCKASGYTFTSYYMHWVRQAPGQGLEWMGIINPSGGSTSYAQKFQGRVTMTRDTSTSTVYMELSSLRSEDTAVYYCARGAPNYGDTTHDYYYMDVWGKGTTVTVSS
VL: EIVMTQSPATLSVSPGERATLSCRASQSVSSNLAWYQQKPGQAPRLLIYGASTRATGIPARFSGSGSGTEFTLTISSLQSEDFAVYYCQQYDDWPFTFGGGTKVEIK
notes: also called E79
binds: all assays above

B2: ADI-29378 (antibody, V domains shown)
VH: QVQLVQSGAEVKKPGASVKVSCKASGYTFTSYYMHWVRQAPGQGLEWMGIINPSGGSTSYAQKFQGRVTMTRDTSTSTVYMELSSLRSEDTAVYYCAREGAGFAYGMDYYYMDVWGKGTTVTVSS
VL: B1 VL with M4L, V13L, N32Y, G50D, T53N, E70D, Q79E, S80P, Y91S, D93N
notes: also called E78
binds: all assays above

B3: ADI-27744 (antibody, V domains shown)
VH: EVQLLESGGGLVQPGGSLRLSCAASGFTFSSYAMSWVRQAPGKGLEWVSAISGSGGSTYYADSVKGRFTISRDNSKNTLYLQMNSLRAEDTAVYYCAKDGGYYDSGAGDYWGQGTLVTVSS
VL: DIQMTQSPSSVSASVGDRVTITCRASQGIDSWLAWYQQKPGKAPKLLIYAASSLQSGVPSRFSGSGSGTDFTLTISSLQPEDFATYYCQQGVSYPRTFGGGTKVEIK
notes: also called A44
binds: all assays above

B4: ADI-27749 (antibody, V domains shown)
VH: EVQLVESGGGLVKPGGSLRLSCAASGFTFSSYSMNWVRQAPGKGLEWVSSISSSSSYIYYADSVKGRFTISRDNAKNSLYLQMNSLRAEDTAVYYCARGAPMGAAAGWFDPWGQGTLVTVSS
VL: B3 VL with D30S, Y94F
notes: also called A49
binds: all assays above

B5: ADI-29426 (antibody, V domains shown)
VH: QVQLQQWGAGLLKPSETLSLTCAVYGGSFSGYYWSWIRQPPGKGLEWIGEIDHSGSTNYNPSLKSRVTISVDTSKNQFSLKLSSVTAADTAVYYCARARGPWSFDPWGQGTLVTVSS
VL: DIQMTQSPSTLSASVGDRVTITCRASQSIGSWLAWYQQKPGKAPKLLIYKASSLESGVPSRFSGSGSGTEFTLTISSLQPDDFATYYCQQYHSFPTFGGGTKVEIK
binds: all assays above

B6: ADI-27724 (antibody, V domains shown)
VH: B5 VH
VL: not shown
binds: all assays above

B7: ADI-29447 (antibody, V domains shown)
VH: B5 VH
VL: B5 VL with G30S, H92D, S93T, P95I
notes: also called F47
binds: all assays above
